B1: DX-513 Ac-GDLHACRPVRGDPWWACTLGDPEGGG-NH2 (peptide)
peptide: Ac-GDLHACRPVRGDPWWACTLGDPEGGG-NH2
modifications: disulfide 6-17 (inferred); also: oxidized peptide
notes: synthetic, TN12 library; also called ACEH2-D8
B2: DX-512 Ac-GDRLHCKPQRQSPWMKCQHLDPEGGG-NH2 (peptide)
peptide: Ac-GDRLHCKPQRQSPWMKCQHLDPEGGG-NH2
modifications: disulfide 6-17 (inferred); also: oxidized peptide
notes: synthetic, TN12 library; also called B-H7
B3: DX-601 Ac-GDGFTCSPIRMFPWFRCDLGDPEGGG-NH2 (peptide)
peptide: Ac-GDGFTCSPIRMFPWFRCDLGDPEGGG-NH2
modifications: disulfide 6-17 (inferred); not fully specified; printed as Ac-GDGFTCSPIRMFPWFRCDLGDPEGGG-NH2
B4: ACE-2 binding polypeptide RYLCLPQRDKPWKFCNWF (peptide)
peptide: RYLCLPQRDKPWKFCNWF
modifications: not fully specified (N-terminus, C-terminus, bridges); cysteine pairing not given here
B5: ACE-2 binding polypeptide QKECKFGYPHCLPW (peptide)
peptide: QKECKFGYPHCLPW
modifications: not fully specified (N-terminus, C-terminus, bridges); cysteine pairing not given here
B6: ACE-2 binding polypeptide YSHCSPLRYYPWWKCTYP (peptide)
peptide: YSHCSPLRYYPWWKCTYP
modifications: not fully specified (N-terminus, C-terminus, bridges); cysteine pairing not given here
B7: ACE-2 binding polypeptide WEVCHWAPMMCKHG (peptide)
peptide: WEVCHWAPMMCKHG
modifications: not fully specified (N-terminus, C-terminus, bridges); cysteine pairing not given here
B8: ACE-2 binding polypeptide RLHCKPQRQSPWMKCQHL (peptide)
peptide: RLHCKPQRQSPWMKCQHL
modifications: not fully specified (N-terminus, C-terminus, bridges); cysteine pairing not given here
B9: ACE-2 binding polypeptide SDWCGTWNNPCFHQ (peptide)
peptide: SDWCGTWNNPCFHQ
modifications: not fully specified (N-terminus, C-terminus, bridges); cysteine pairing not given here

Positions of bridges follow the written chain, without caps; N, C: chain ends. No end group written: not given here.

T1 sequence (Q9BYF1 18-740 limits assumed): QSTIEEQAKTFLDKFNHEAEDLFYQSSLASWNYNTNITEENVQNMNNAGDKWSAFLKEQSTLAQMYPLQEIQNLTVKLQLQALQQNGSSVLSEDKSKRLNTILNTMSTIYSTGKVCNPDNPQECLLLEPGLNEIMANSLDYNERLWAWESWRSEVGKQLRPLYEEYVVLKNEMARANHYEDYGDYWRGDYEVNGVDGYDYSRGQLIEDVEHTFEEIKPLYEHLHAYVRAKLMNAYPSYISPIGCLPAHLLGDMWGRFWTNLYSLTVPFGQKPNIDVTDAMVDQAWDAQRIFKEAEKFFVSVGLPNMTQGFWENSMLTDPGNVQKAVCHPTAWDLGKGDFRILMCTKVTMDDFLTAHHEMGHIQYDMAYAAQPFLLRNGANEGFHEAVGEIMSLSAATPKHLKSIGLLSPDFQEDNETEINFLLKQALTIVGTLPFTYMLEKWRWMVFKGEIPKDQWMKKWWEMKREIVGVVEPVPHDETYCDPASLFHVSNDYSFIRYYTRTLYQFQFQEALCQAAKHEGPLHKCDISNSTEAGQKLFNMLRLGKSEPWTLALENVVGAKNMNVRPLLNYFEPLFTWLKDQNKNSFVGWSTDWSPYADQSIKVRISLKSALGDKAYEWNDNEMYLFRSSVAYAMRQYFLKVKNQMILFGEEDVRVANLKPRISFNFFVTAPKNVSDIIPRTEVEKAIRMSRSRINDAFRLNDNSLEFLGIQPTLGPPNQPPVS

One experiment addresses T1, recombinant human-ACE-2 (human, UniProt Q9BYF1 18-740, limits assumed). The experiment is described as follows: cell-based or functional assay.
B1: the “IC50” value worked out at 90 nM.

With Ac-GSRGFCRDSSCSFPAPGEGGG-NH2 (disulfide 6-11 (inferred); also: oxidized peptide) [DX-525 Ac-GSRGFCRDSSCSFPAPGEGGG-NH2], the “IC50” value was found to be 1000 nM.

For Ac-GDRYLCLPQRDKPWKFCNWFDPEGGG-NH2 (disulfide 6-17 (inferred); also: oxidized peptide) [DX-599 Ac-GDRYLCLPQRDKPWKFCNWFDPEGGG-NH2], the half-inhibitory concentration (IC50) worked out at 140 nM.

For B2, the “IC50” value worked out at 60 nM.

Turning to B3, the 50% inhibitory concentration (IC50) stood at 68 nM.

Take Ac-GSRIGCRDSRCNWWAPGEGGG-NH2 (disulfide 6-11 (inferred); also: oxidized peptide) [DX-524 Ac-GSRIGCRDSRCNWWAPGEGGG-NH2]: the “IC50” value is 600 nM.

For the molecule Ac-AGSDWCGTWNNPCFHQGTEGGG-NH2 (disulfide 6-13 (inferred); also: oxidized peptide) [DX-531 Ac-AGSDWCGTWNNPCFHQGTEGGG-NH2], the “IC50” value is 500 nM.

For the molecule Ac-GDFSPCKALRHSPWWVCPSGDPEGGG-NH2 (disulfide 6-17 (inferred); also: oxidized peptide) [DX-602 Ac-GDFSPCKALRHSPWWVCPSGDPEGGG-NH2], the “IC50” value was found to be 120 nM.

Consider Ac-AGWEVCHWAPMMCKHGGTEGGG-NH2 (disulfide 6-13 (inferred); also: oxidized peptide) [DX-529 Ac-AGWEVCHWAPMMCKHGGTEGGG-NH2], for which the “IC50” value stood at 400 nM.

In the case of Ac-AGQKECKFGYPHCLPWGTEGGG-NH2 (disulfide 6-13 (inferred); also: oxidized peptide) [DX-530 Ac-AGQKECKFGYPHCLPWGTEGGG-NH2], the “IC50” value came to 30000 nM.

In the next experiment the target is T2, FLAG-tagged ACE-2 target (human, UniProt Q9BYF1 18-740).
T2 construct: range 1-740; obtained from Human Genome Sciences, Inc; also called FLAG-ACE-2; tagged human ACE-2; not shown: FLAG tag
T2 sequence (Q9BYF1 18-740 limits assumed): as the sequence (Q9BYF1 18-740 limits assumed) above
The experiment is described as follows: phage ELISA on FLAG-ACE-2. The procedure:
Phage enriched from the third round of selection were screened by ELISA for strong ACE-2 binders. Immulon 2 96-well plates (Dynatech) were coated with streptavidin for 1 hour at 37° C. and subsequently coated with anti-FLAG antibody for 1 hour at room temperature. Half of the plates were further coated with FLAG-ACE-2 as the target plates, and the other half of the plates were coated with FLAG peptide as background plates. The amount of each protein or peptide coated was 100 ng per well. The coated plates were then incubated for 1 hour at room temperature with 1:2 diluted overnight phage cultures that were made by inoculating phage from individual plaques into bacterial host cells. After being washed 7 times with PBST, the plates were incubated with HRP-conjugated anti-M13 antibody (Pharmacia) for 1 hour at room temperature, washed 5 times, developed with TMB peroxidase substrate solution (Kirkegaad & Perry Laboratories, Gaithersburg, Md.), and read at 630 nm on an ELISA plate reader.
On to YEFCHYAPQECKHM (not fully specified (bridges); cysteine pairing not given here) [ACE-2 binding polypeptide YEFCHYAPQECKHM], for which the binding result is “binds”.

On to EHNCTWWNPCWTT (not fully specified (bridges); cysteine pairing not given here) [ACE-2 binding polypeptide EHNCTWWNPCWTT], for which the binding result is given as “binds”.

With YWFCFDWEEDANGHCGGN (not fully specified (bridges); cysteine pairing not given here) [ACE-2 binding polypeptide YWFCFDWEEDANGHCGGN], the binding result is listed as “binds”.

FLLCFDWDIDWEYGCQHH (not fully specified (bridges); cysteine pairing not given here) [ACE-2 binding polypeptide FLLCFDWDIDWEYGCQHH]: the binding result was “binds”.

Turning to B4, the binding result is recorded as “binds”.

As for LEMCEALFCVEF (disulfide 4-9 (inferred); not fully specified (N-terminus, C-terminus)) [ACE-2 binding polypeptide LEMCEALFCVEF], the binding result is “binds”.

B5: the binding result is “binds”.

As for WDHCNWAHPCSRK (not fully specified (bridges); cysteine pairing not given here) [ACE-2 binding polypeptide WDHCNWAHPCSRK], the binding result is reported as “binds”.

Take YEECHWRPMACSTH (not fully specified (bridges); cysteine pairing not given here) [ACE-2 binding polypeptide YEECHWRPMACSTH]: the binding result is reported as “binds”.

For B6, the binding result is on record as “binds”.

Consider LHACRPVRGDPWWACTLG (disulfide 4-15 (inferred); not fully specified (N-terminus, C-terminus)) [ACE-2 binding polypeptide LHACRPVRGDPWWACTLG], for which the binding result is reported as “binds”.

B7: the binding result is given as “binds”.

In the case of MDHCTWYQPCVLK (not fully specified (bridges); cysteine pairing not given here) [ACE-2 binding polypeptide MDHCTWYQPCVLK], the binding result is listed as “binds”.

Take B8: the binding result is reported as “binds”.

In the case of B9, the binding result is recorded as “binds”.

In the next experiment the target is T1, recombinant human-ACE-2. The experiment is described as follows: fluorometric ACE-2 activity assay, M-2195 substrate. The procedure:
Assay mixture was prepared first by pre-incubating (30 minutes, room temperature) the enzyme with the inhibitor (0.45 μg ([…]) ACE-2, 0-0.5 μM inhibitor rage, up to 90 […] volume with 100 mM TRIS pH 7.4, 0.1% Tween-20, 0.4% DMSO) in each well, in triplicate, by dispensing volumes using a repeat pipetter (Rainin) into a 96-well clear-bottom back plate (Costar, 07-200-590). […] Substrate stock (10 μL of 10× concentration) was added to each well to be tested in blocks of three vertically down the plate. The reaction was monitored on a Spectrafluor Plus (Tecan) at an excitation wavelength of 340 nm and an emission wavelength of 400 nm (+/−35 nm) every 30 seconds for a time period of 10 minutes.
As to B1, the Ki came out at 150 nM.

Consider B2, for which the Ki was determined as 150 nM.

A word on the IC50: it is the midpoint of a concentration-inhibition curve. One may read the Ki as a measure of affinity in units of concentration, obtained from inhibition or displacement.
